Source: publication doi:10.1101/2021.01.07.425699
Like-named read-outs stand apart in the source and are kept apart here.

T1: AtLFYΔ40 (LEAFY) (Arabidopsis thaliana, UniProt Q00958 41-420, del1-40)
T1 sequence: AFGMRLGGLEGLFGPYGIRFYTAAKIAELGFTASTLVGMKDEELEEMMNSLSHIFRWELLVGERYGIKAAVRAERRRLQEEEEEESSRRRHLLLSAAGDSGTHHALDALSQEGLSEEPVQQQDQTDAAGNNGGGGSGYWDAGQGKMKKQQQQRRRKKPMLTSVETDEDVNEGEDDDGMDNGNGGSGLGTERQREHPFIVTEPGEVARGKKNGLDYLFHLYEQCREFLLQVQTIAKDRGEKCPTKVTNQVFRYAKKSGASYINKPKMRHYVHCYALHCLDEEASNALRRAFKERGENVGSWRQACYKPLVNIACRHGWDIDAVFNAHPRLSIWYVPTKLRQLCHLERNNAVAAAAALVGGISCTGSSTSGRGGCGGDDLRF


How the values were obtained:
AtLFYΔ40 (LEAFY) [1] = target: T1, AtLFYΔ40 (LEAFY); assay: EMSA
AtLFYΔ40 (LEAFY) [2] = target: T1, AtLFYΔ40 (LEAFY); assay: EMSA; remark: listed apart in the source

Row | Binder | binding result (AtLFYΔ40 (LEAFY) [1]) | binding result (AtLFYΔ40 (LEAFY) [2])
1 | 601 free DNA (dsDNA) DNA 1: ATCGATGTATATATCTGACACGTGCCTGGAGACTAGGGAGTAATCCCCTTGGCGGTTAAAACGCGGGGGACAGCGCGTACGTGCGTTTAAGCGGTGCTAGAGCTGTCTACGACCAATTGAGCGGCCTCGGCACCGGGATTCTGAT DNA 2: ATCAGAATCCCGGTGCCGAGGCCGCTCAATTGGTCGTAGACAGCTCTAGCACCGCTTAAACGCACGTACGCGCTGTCCCCCGCGTTTTAACCGCCAAGGGGATTACTCCCTAGTCTCCAGGCACGTGTCAGATATATACATCGAT | binds | –
2 | C2 free DNA (dsDNA) DNA 1: ATCGATGTATATATCTGACACGTGCCTGGAGACTAGGGAGTAATCCCCTTGGCGGTTAAAACGCATTGACCAGCGGGTAATTGCGTTTAAGCGGTGCTAGAGCTGTCTACGACCAATTGAGCGGCCTCGGCACCGGGATTCTGAT DNA 2: ATCAGAATCCCGGTGCCGAGGCCGCTCAATTGGTCGTAGACAGCTCTAGCACCGCTTAAACGCAATTACCCGCTGGTCAATGCGTTTTAACCGCCAAGGGGATTACTCCCTAGTCTCCAGGCACGTGTCAGATATATACATCGAT | – | binds
